Results from patent publication US20210061904A1 (GMAX BIOPHARM, published 2021).

Assays:
[1] = target: T1, human gastric inhibitory polypeptide receptor (hGIPR) (human, UniProt P48546 22-466); assay: FACS on CHO-DHFR-hGIPR cells, 1 µM antibody
T1 construct: also called human GIPR; CHO-DHFR-hGIPR
T1 sequence: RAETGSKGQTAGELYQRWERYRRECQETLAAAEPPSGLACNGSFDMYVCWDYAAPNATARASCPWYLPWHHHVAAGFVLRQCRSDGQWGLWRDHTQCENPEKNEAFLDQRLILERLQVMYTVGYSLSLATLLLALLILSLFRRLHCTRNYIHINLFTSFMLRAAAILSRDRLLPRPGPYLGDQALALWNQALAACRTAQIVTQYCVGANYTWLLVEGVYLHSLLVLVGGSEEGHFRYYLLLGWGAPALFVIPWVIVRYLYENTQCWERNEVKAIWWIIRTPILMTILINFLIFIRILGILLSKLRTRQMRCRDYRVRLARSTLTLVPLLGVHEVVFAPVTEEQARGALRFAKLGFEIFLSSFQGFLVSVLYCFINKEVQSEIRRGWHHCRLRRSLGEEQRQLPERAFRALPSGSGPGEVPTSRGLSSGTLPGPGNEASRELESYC
Protocol: PBS containing 10 mM EDTA was used to detach the CHO-DHFR-hGIPR cells and 10⁵ cells/tube was distributed into 1.5 mL EP tubes, and the supernatant was removed after centrifugation. The negative control sample was resuspended with a loading buffer (PBS, 2% FBS). For the positive control, 200 μL GIPR antibody solution of specific concentration was added to the cells and incubated at room temperature; after incubation, the cells were then centrifuged at 1500 rpm to remove the supernatant, washed with a FACS loading buffer and centrifuged again. The cells were resuspended with addition (200 μL/well) of a FITC labeled goat anti-mouse fluorescent antibody or PE labeled goat anti-human fluorescent antibody at 1:50 dilution and incubated at room temperature for 30 min in the dark. The supernatant was removed after centrifugation, and cells were washed with FACS loading buffer, centrifuged again and resuspended with the loading buffer for FACS analysis. The recombinant anti-hGIPR functional antibody specifically binds to GIPR-expressing CHO-DHFR-GIPR cells.

[2] = target: human GLP-1 receptor (hGLP-1R) (human) (UniProt P43220); assay: cell-based or functional assay
Chain of human GLP-1 receptor (hGLP-1R) (human) (P43220 24-463): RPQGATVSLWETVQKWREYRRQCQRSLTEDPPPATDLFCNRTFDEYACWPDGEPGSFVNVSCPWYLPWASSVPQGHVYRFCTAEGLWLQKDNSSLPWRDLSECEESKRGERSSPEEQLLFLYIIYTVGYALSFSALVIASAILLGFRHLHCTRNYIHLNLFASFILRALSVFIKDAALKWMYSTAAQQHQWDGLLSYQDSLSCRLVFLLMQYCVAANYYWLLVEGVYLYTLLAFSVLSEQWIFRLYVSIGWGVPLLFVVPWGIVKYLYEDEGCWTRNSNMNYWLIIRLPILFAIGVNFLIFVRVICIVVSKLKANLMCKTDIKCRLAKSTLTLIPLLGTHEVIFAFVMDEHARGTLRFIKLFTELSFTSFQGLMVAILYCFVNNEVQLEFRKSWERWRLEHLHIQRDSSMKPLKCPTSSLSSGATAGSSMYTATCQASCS

[3] = target: T2, human gastric inhibitory polypeptide receptor (hGIPR) (human) (UniProt P48546); assay: cell-based or functional assay
T2 sequence: T1 sequence

[4] = target: T1, human gastric inhibitory polypeptide …; assay: cell-based or functional assay

B1: hGIPR antibody L10H8 (antibody, V domains shown)
VH: QVQLQQSGAEVKKPGSSVKVSCKASGGTFSSYAISWVRQAPGQGLEWMGGIIPTFGTANYAQKFQGRVTITADESTSTAYMELSSLRSEDTAVYYCAQGPIVGAPTDYWGKGTLVTVSS
VL: SYVLTQPPSASGTPGQRVAISCSGSNSNIGSNTVHWYQQLPGAAPKLLIYSNNQRPSGVPDRFSGSNSGTSASLAISRLQSEDEADYYCAAWDDSLNGVVFGGGTKVTVL
notes: Recombinantly expressed complete antibody; Only the variable domains are tied to L10H8; also called Ll0H8
[1]
  binding result: binds

B2: GIPR antibody/GLP-1 fusion protein GLP-1-Linker-L7H6 (protein, part only; not given: constant regions, not shown: a dimerising Fc or GST)
light, part: HGEGTFTSDVSSYLEGQAAKEFIAWLVKGGGGGSGGGGSGGGGSDIVLTQSPASLAVSPGQRATITCRASQSVNTAVYSYIHWYQQKPGQPPKLLIKYASNLESGVPARFSGSGSGTDFTLTINPVEANDAANYYCQHSFDFPYTFGGGTKVEIKR
heavy, part: QVQLQESGPGLVKPSQTLSLTCTVSGYSITSDYAWNWIRQPPGKGVEWMGYISYRGIATYKPSLKSRITISRDTSKNQFSLKLSSVTAADTAVYYCVRGEYGPGNFDFWGQGTTVTVSS
[2]
  EC50, CRE-Luciferase reporter gene assay on CHO-DHFR- cells co-expressing hGLP1R: 0.04 nM
[3]
  IC50, direct cAMP assay, antagonism of GIP (50 pM) activation of hGIPR on CHO-DHFR cells: 14.9 nM

B3: hGIPR antibody L7H6 (antibody, V domains shown)
VH: B2 heavy, part
VL: DIVLTQSPASLAVSPGQRATITCRASQSVNTAVYSYIHWYQQKPGQPPKLLIKYASNLESGVPARFSGSGSGTDFTLTINPVEANDAANYYCQHSFDFPYTFGGGTKVEIKR
[4]
  IC50, direct cAMP assay, antagonism of GIP (50 pM) activation of hGIPR on CHO-DHFR cells: 7.6 nM
